Experimental data reported in the nanobody polyreactivity screen of Harvey et al. (2022).

assay: yeast display, Sf9 membrane polyspecificity reagent, FACS + sequencing; frameworks hold sequencing errors
In short: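 Synthetic nanobody libraries on Saccharomyces cerevisiae BJ5465 were galactose-induced for 36–48 hours, stained 1 hour at 4 °C with 10% biotinylated, detergent-solubilized Sf9 membrane reagent and enriched on streptavidin microbeads. FACS then separated cells into low and high (top ~1%) gates by anti-HA (expression) and streptavidin (reagent binding) fluorescence. Genes were colony-PCR amplified, MiSeq 2 × 250 sequenced and CDR-length filtered. A clone's polyreactivity label is that of its gate of origin.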

Row | Sequence | polyreactivity (PSR sort gate)
1 | QVQLVESGGGFVQAGGSLRLSCAASGFIFYMFAMGWYRQAPGKERELVAAITSRGGSTFYADSVKGRFTISRDNAKNTVYLQMNSLKPEDTAVYYCAAVRDLYTYRLGYWGQGTQVTVSS | high polyreactivity
2 | QVQLVESGGGFVQAGGSLRLSCAASGFTFGYYTMGWYRQAPGKERELVAAITYRGGRTYYADSVKGRFTISRDNAKNTVYLQLNSLKPEATAVYYGAARLLGKTGRTDSGAEGDYWGQGTQVTVSS | high polyreactivity
3 | QVQLVESGGGFVQAGGSLRLSCAASGFTFYKYAMGWYRQAPGQERELVAAITRGGGSTYYADSVKGRFTISRDHAQNPVYLQKNRLIPEDPAVYYCNVLYGYGTDVSRVDYWGQGTQVTVSS | high polyreactivity
4 | QVQLVESGGGFVQAGGSLRLSCAASGITFYSNAMGWYRQAPGKERELGAAISTTGGRTYYADSVKRRFTISRDNAKNTVYLHMNSLKPEDTAVYYCTKAWGRGSLTEPYDYWGQGTQVTVSS | high polyreactivity
5 | QVQLVESGGGFVQAGGSLRLSCAASGRICGYYAMGWFRQAPGKERELVAAISSSGGSTYYADSVKGRFTISRDTAKNTVYLQINSQKPEYTAVYYCNVDWYDNGYGGYDYWRQGTQVTVSS | low polyreactivity
6 | QVQLVESGGGFVQAGGSLRLSCAASGRIFGPYAMGWYRQAPGKERELVAVITNSGSTNYADSVKGRFTISRDNAKNTVYLQMNSLKPEDTAVYYCNRVEGGAYGSNFDYWGQVTQVTVSS | high polyreactivity
7 | QVQLVESGGGFVQAGGSLRLSCAASGRIFKWYAMGWYIQAPGKERELVAAITSGGSTYYADSVKGRFTISRDNAKNTVYLQMNSLKPEDTAVYYCNTALTRWYNQYDYWGQGTLVTVSS | high polyreactivity
8 | QVQLVESGGGFVQAGGSLRLSCAASGRIFRTNAMGWYRQAPGKERELVAAITSSGTRTYYADSVKGRFTISRDNAKNTVYLQMNSLKPEDTAVYYCAAGGGHSMYYWGQGTQVTVSS | high polyreactivity
9 | QVQLVESGGGFVQAGGSLRLSCAASGRTIPYYAMGWYRQARGKEWELVATISTGDSTYYADSVKGRFTISRDNAKNTLYLQMNSLKPEATAVYSCAKDRYTYWSVHAFRRLDYWGKGTQVTVSS | low polyreactivity
10 | QVQLVESGGGFVQAGGSLRLSCAASGSIFYLYAMGWYRQAPGKERELVAAITSIGGSTYADSVKGRFTISRDNAKYTVYLQMNSLKPEDTAVYYCATYVAYHRGYRTYDQWGQGTQVTVSS | low polyreactivity
11 | QVQLVESGGGFVQAGGSLRLSCAASGSTCDGYSMGWYRQAPGKERELVAGISTSGGSTYYADSVKGRFTISRDNAKNTVYLQMNSLKPEDTAVYYCAAEWFDQVKDRAADYISYEYWGQGTQVTVSS | low polyreactivity
12 | QVQLVESGGGFVQAGGSLRLSCAASGSTFDGYAMGWYRQAPGKERELVAAITSSDGSTYYADSVKGRFTISRDNAKNTVYLQMNSLKPEDTAGYSCAAAPDWKDSLPPDMDYWGQGTQVTVSS | low polyreactivity
13 | QVQLVESGGGFVQAGGSLRLSCAASGSTFDYNTMGWYRQAPGKERELVAAISESGGSTYYADSVKGRFTISRDNAKNTVYLQMNSLKPEDTAVYYCAADTIGYHYWYDYWGQGTQVTVSS | low polyreactivity
14 | QVQLVESGGGFVQAGGSLRLSCAASGSTFSYYAMGWYRQAPGKERELVAAINWRGTNTYYADSVKGRFTISRDNAKNTVYLQMNSLKPEDTAVYYCNKESYRSSSPYNYWGQGTQVTVSS | high polyreactivity
15 | QVQLVESGGGFVQAGGSLRLSSAASGINFYRKTMGWYRQAPGKERELVASISRGGSTYYADSVKGRFTISRDNAKNTVYLQMNILKPEDTAVYYCSTSGQQYYSRNFDYWGQGTQVTVSS | low polyreactivity
16 | QVQLVESGGGFVQSGGSLRLSCAASGITFRYYTMGWYRQPPRKERELDAVISWSGGSTYYADSVKGRFTISRDNAKNTVYLQRNSLKPEDTAVYYCAAVRRISRYDYWGQGTQVTVSS | high polyreactivity
17 | QVQLVESGGGIDQAGGSLRLSCAASGGTFFSNAMGWYRQAPGKERELVAGITSGGRTYYADSVKGRFTISRDNAKNTVYLQMNSLKPEDTAVDYCATRSRRTYYYYGAEGYWGQGTQVTVSS | high polyreactivity
18 | QVQLVESGGGILQAGGSLRLSCAASGFTFLGYVMGWYRQSPGKEREIVADITESGGRTYYADSVKGRFTISRDNAKNTVFLQMNSLKPEDTAVYYCAAELSYWGYYYSFDYWGHGTQVTVSS | low polyreactivity
19 | QVQLVESGGGIVPAGGSLRLSCAASGRSFYNYAMGWYRQAPGKERELVASISGIGGTTYYADSVKGRFTISRDNAKNTVYFQMNSLKPEDTAVYYCAARLYNWRRYGYWGQRTQVTVSS | high polyreactivity
20 | QVQLVESGGGIVQAGGSLLLSCAASGRIFEKYALGWYRQAPGKDRELVAAISYSGGSTYYADSVKGSFTSSRDKAKNTVYFQMNSLKPEDTAVYYCARYSRTQAYDYWGQGTQVTVSS | high polyreactivity
21 | QVQLVESGGGIVQAGGSLRFSCAASGFTFWKYTRGWYRQAPGKERELVAAINGGGGDTYADSVKGRFTISRDNAKNTVYLQMNSLKPEDTAVYYCAARYGTGTTWVQPTEMDYWGQGTQVTVSL | low polyreactivity

Row | Sequence | polyreactivity (PSR sort gate)
22 | QVQLVESGGGIVQAGGSLRISCAASGRIFSTYAMGWYRQAPGKERELVAAINKIGGSTYYADSVKGRFTISRDNAKNTVYLQMNSLKPEDTAVYYCAADAPYYPVRRYYYWGQGTQVTVSS | low polyreactivity
23 | QVQLVESGGGIVQAGGSLRLAVLPPDLPSTLNDMGWSTQAPGKERELVAAITRGGSTNSADSVKGRFTISRDNAKNTVYLQMNILKPEDTAVYYCDKDSLVDHVGGYDYWGQATQVTVSS | low polyreactivity
24 | QVQLVESGGGIVQAGGSLRLCCAASGRSFSHYAMGWSRQAPGKDRELVATITRNGGITYYADSVKWRFTISRDNAKNTVYLQMNSLKPEDTAVYYCAAGRYYNLRATHGYWGQATQVTVSS | low polyreactivity
25 | QVQLVESGGGIVQAGGSLRLICAASGSTFYPYAMGWYRQAPGKERELVAGISWSGGSTYYADSVKGRFTISRDNAKYTVYLQMNSLKPEDTAVYYCAVDVYWSVIYDYWGQGTQVTVSS | low polyreactivity
26 | QVQLVESGGGIVQAGGSLRLNSAASGITINGNAMGWYRQEPGKERQLVAAISRSSSRTYYADSVKGRFTISRDNAKNTVYLQKNSLKQEDTAVYYCAALSLNVDAPSYGYWGQGTQVTVSS | high polyreactivity
27 | QVQLVESGGGIVQAGGSLRLSCAAAGSNFTVYVMGWYRQAPGKERELVARISSDGSTNYADSVKGRFTISRDNAKNSVFLQMNSLKPEDTAVYYCNADFPFSGRRPWYNAYDYWGQGTQVTVSS | low polyreactivity
28 | QVQLVESGGGIVQAGGSLRLSCAASGFIFDAYAMGWYRQAPGKERELVAGISIGGRTIYADSVKGRFTISRDNAKNTVYLQMNSLKPEDTAVYYCAARNYRYYYGSYYRGPITNYEYWGQGTQVTVSS | low polyreactivity
29 | QVQLVESGGGIVQAGGSLRLSCAASGFIFDQNAMGWYRQAPGKERELVAAISKRGGSTYYADSVKGRFTISRDNAKNTVYLQMNSLKREDTAVYYCATRSWGPYYYGYNHWGQGTQVTVSS | high polyreactivity
30 | QVQLVESGGGIVQAGGSLRLSCAASGFTISRNTMGWYRQAPGKEREFVARISAYGGSTYYADSVKGRFTISRDNAKNSVYLQMNSLKPVDTAVYYCAAVYRRYGGSRYDYWGQGTQVTVSS | high polyreactivity
31 | QVQLVESGGGIVQAGGSLRLSCAASGGIFDSYAMGWYRQAPGKERELVADITSGGSTNYADSVKGRFTISRDNAKNTVYLQMNSLKPEDTAVYYCAKEFYYSVGVNLGDSWGQGIQVTVSS | low polyreactivity
32 | QVQLVESGGGIVQAGGSLRLSCAASGGIFDYNAMGWYRQAPGKERELVAAISGSDVSTYYADSVKGRFTISRDNAKNTVYLQMKSLKPEDTAVYYCAADAPWAYYEYDYWGQGTQVTVSS | low polyreactivity
33 | QVQLVESGGGIVQAGGSLRLSCAASGIIFQTYAKGWYRQAPGKERELVAAISRSGGSTYYADSVKGRFTISRENSKNTVYLQMNSLKPEDTAVYYCAAYGYNVNWLKGIYWGQGTQVTVSS | high polyreactivity
34 | QVQLVESGGGIVQAGGSLRLSCAASGIIFRAYAMGWSRQAPGKDRELVAAISWSGGSTYYADSVKGRFTISRDNAKNTVYLQMNSLKPEDTAVYYCAARRWKGYYYWGQGTQVNVSS | high polyreactivity
35 | QVQLVESGGGIVQAGGSLRLSCAASGITFAFYDMGWYRQAPGTERELVAAISYSGGGTYYADSVKGRFTISRDNAKNTVYLQMNSLKPEDTAVYYCAADPKTHPLFGEDYWGQGTQVTVSS | low polyreactivity
36 | QVQLVESGGGIVQAGGSLRLSCAASGITFGRNTMGWYRQAPGKERELVAAIDSGGNTYADSVKGRFTISRDNAKNTVYLQMNSLKPEDTAVYYCAVDGGEFSSYGYWGQGTQVTVSS | low polyreactivity
37 | QVQLVESGGGIVQAGGSLRLSCAASGITFVAYDMGGYRQAPGKERELVAAITWNGDRTYYADSVKGRFTISRDNAKNTVYVEMNSLKPEDTAVYDCSAYHYYYEMDYWGQGTQVTVPS | high polyreactivity
38 | QVQLVESGGGIVQAGGSLRLSCAASGITIQGYTMGWYRQEPGKERELVAAISSNGGRTYYADSVKGSFTISRDNAKNTVYLQMNSLKPEDTAVDYCAARKWRLIVDYWGEGTQVTVSS | high polyreactivity
39 | QVQLVESGGGIVQAGGSLRLSCAASGLIFFTYAMGWYSQAPGKERELVAAITTGGSTNYADSVKGRFTISRDNAKKTVYLQMNSLKPEDTAVYYCAAQRVSVLLFVRHDYWGQGTQVTVSS | low polyreactivity
40 | QVQLVESGGGIVQAGGSLRLSCAASGLIIQNNAMVWNRQAPGKERELVAAITSDGSTYADSVKGRFTISRDNAKNTVYLQMNSLKPEDTAVYYCNADGITSLPVPALDYWGQGTQVTVSS | low polyreactivity
41 | QVQLVESGGGIVQAGGSLRLSCAASGMGWYRQAPGKERELVADITSRGGSTYYADSVKGRFTISRDNAKITVYLQMNSLKPEDTAVSYCAARKRVVQFDYWGQGTQVTVSS | low polyreactivity
